Measured values from PMC10786891, “Massively parallel profiling of RNA-targeting CRISPR-Cas13d”.
Positions count from the first letter of the chain named.

T1: EsCas13d, nuclease-dead (Eubacterium siraeum, UniProt B0MS50, R295A;H300A;R849A;H854A)
T1 sequence: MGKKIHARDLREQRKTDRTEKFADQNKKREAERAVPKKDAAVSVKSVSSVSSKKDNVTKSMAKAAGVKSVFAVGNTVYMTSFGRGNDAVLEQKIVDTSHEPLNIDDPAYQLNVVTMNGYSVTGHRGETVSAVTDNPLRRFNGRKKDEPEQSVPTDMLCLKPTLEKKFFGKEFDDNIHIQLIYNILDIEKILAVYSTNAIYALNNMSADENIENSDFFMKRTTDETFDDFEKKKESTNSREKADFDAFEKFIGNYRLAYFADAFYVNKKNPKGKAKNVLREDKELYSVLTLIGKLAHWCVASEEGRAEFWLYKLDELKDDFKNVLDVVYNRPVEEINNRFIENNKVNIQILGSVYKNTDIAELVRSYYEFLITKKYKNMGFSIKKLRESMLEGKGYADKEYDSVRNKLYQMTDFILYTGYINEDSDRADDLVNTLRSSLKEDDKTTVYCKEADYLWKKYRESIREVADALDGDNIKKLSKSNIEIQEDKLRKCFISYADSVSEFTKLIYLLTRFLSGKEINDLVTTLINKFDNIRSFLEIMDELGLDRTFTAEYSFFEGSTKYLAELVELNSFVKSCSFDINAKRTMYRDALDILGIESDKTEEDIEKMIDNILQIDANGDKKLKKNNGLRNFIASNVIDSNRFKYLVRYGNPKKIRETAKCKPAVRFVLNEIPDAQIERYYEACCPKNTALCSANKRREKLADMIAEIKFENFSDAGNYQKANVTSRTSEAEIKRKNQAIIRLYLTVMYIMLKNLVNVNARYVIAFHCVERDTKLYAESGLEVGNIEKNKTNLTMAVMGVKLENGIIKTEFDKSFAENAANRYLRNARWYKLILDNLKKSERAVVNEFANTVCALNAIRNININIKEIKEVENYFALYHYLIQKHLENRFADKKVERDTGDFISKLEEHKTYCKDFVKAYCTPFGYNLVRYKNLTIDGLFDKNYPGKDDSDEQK

B1: target 2 MT 5'PFS CAC 3'PFS UUG (mixed)
RNA 1: CACCCGUGCAAAAUUGCAGGGGUCUAAAACCUUCUCCAAAUUGUUUCAUCCU
RNA 2: GGGAAUGGAUCCACAUCUACGAAUUCCACAGGAUGAAACAAUUUGGAGAAGUUGAGAUCGGAAGAGCACACGU
B2: target 2 MT 5'PFS CAC 3'PFS UUA (mixed)
RNA 1: B1 RNA 1
RNA 2: B1 RNA 2 with G54A
B3: target 2 MT 5'PFS CAC 3'PFS UUC (mixed)
RNA 1: B1 RNA 1
RNA 2: B1 RNA 2 with G54C
B4: target 1 insC 3' of 12,insA 3' of 10 (mixed)
RNA 1: CACCCGUGCAAAAAUGCAGGGGUCUAAAACUGAGCGGAUAACCUCUCUAUGG
RNA 2: GGGAAUGGAUCCACAUCUACGAAUUCGUACCAUAGAGAGGCUUAAUCCGCUCACCGAGAUCGGAAGAGCACACGU
B5: target 2 MT 5'PFS GUA 3'PFS CAA (mixed)
RNA 1: B1 RNA 1
RNA 2: B1 RNA 2 with C27G, A28U, C29A, U52C, U53A, G54A
B6: target 2 MT 5'PFS UUA 3'PFS ACU (mixed)
RNA 1: B1 RNA 1
RNA 2: B1 RNA 2 with C27U, A28U, C29A, U52A, U53C, G54U
B7: target 2 MT 5'PFS GAG 3'PFS CAA (mixed)
RNA 1: B1 RNA 1
RNA 2: B1 RNA 2 with C27G, C29G, U52C, U53A, G54A
B8: target 2 MT 5'PFS GAG 3'PFS CAC (mixed)
RNA 1: B1 RNA 1
RNA 2: B1 RNA 2 with C27G, C29G, U52C, U53A, G54C
B9: target 2 MT 5'PFS GAG 3'PFS CAG (mixed)
RNA 1: B1 RNA 1
RNA 2: B1 RNA 2 with C27G, C29G, U52C, U53A
B10: target 2 MT 5'PFS GUG 3'PFS AGA (mixed)
RNA 1: B1 RNA 1
RNA 2: B1 RNA 2 with C27G, A28U, C29G, U52A, U53G, G54A
B11: target 2 MT 5'PFS GUG 3'PFS AGC (mixed)
RNA 1: B1 RNA 1
RNA 2: B1 RNA 2 with C27G, A28U, C29G, U52A, U53G, G54C
B12: target 2 MT 5'PFS GGG 3'PFS CGU (mixed)
RNA 1: B1 RNA 1
RNA 2: B1 RNA 2 with C27G, A28G, C29G, U52C, U53G, G54U
B13: target 2 MT 5'PFS GUG 3'PFS AGG (mixed)
RNA 1: B1 RNA 1
RNA 2: B1 RNA 2 with C27G, A28U, C29G, U52A, U53G
B14: target 2 MT 5'PFS GAG 3'PFS CAU (mixed)
RNA 1: B1 RNA 1
RNA 2: B1 RNA 2 with C27G, C29G, U52C, U53A, G54U
B15: target 1 insG 3' of 22,insU 3' of 22 (mixed)
RNA 1: B4 RNA 1
RNA 2: B4 RNA 2 with C31G, A32U, U33C, G35U, G40A, C41G, U42G, A44U
B16: target 2 MT 5'PFS GGG 3'PFS CGA (mixed)
RNA 1: B1 RNA 1
RNA 2: B1 RNA 2 with C27G, A28G, C29G, U52C, U53G, G54A
B17: target 2 MT 5'PFS GGG 3'PFS CGC (mixed)
RNA 1: B1 RNA 1
RNA 2: B1 RNA 2 with C27G, A28G, C29G, U52C, U53G, G54C
B18: target 2 MT 5'PFS GUG 3'PFS AGU (mixed)
RNA 1: B1 RNA 1
RNA 2: B1 RNA 2 with C27G, A28U, C29G, U52A, U53G, G54U
B19: target 2 MT 5'PFS GGG 3'PFS CGG (mixed)
RNA 1: B1 RNA 1
RNA 2: B1 RNA 2 with C27G, A28G, C29G, U52C, U53G
B20: target 2 MT 5'PFS ACG 3'PFS AUA (mixed)
RNA 1: B1 RNA 1
RNA 2: B1 RNA 2 with C27A, A28C, C29G, U52A, G54A
B21: target 2 MT 5'PFS ACG 3'PFS AUU (mixed)
RNA 1: B1 RNA 1
RNA 2: B1 RNA 2 with C27A, A28C, C29G, U52A, G54U
B22: target 2 MT 5'PFS GCU 3'PFS UAA (mixed)
RNA 1: B1 RNA 1
RNA 2: B1 RNA 2 with C27G, A28C, C29U, U53A, G54A
B23: target 2 MT 5'PFS GCU 3'PFS UAC (mixed)
RNA 1: B1 RNA 1
RNA 2: B1 RNA 2 with C27G, A28C, C29U, U53A, G54C
B24: target 2 MT 5'PFS GAU 3'PFS AUU (mixed)
RNA 1: B1 RNA 1
RNA 2: B1 RNA 2 with C27G, C29U, U52A, G54U
B25: target 2 MT 5'PFS GGG 3'PFS AGG (mixed)
RNA 1: B1 RNA 1
RNA 2: B1 RNA 2 with C27G, A28G, C29G, U52A, U53G
B26: target 1 insG 3' of 19,insC 3' of 19 (mixed)
RNA 1: B4 RNA 1
RNA 2: B4 RNA 2 with A34G, G35C, G40A, C41G, U42G, A44U
B27: target 2 MT 5'PFS GGG 3'PFS AGC (mixed)
RNA 1: B1 RNA 1
RNA 2: B1 RNA 2 with C27G, A28G, C29G, U52A, U53G, G54C
B28: target 2 MT 5'PFS GGG 3'PFS AGA (mixed)
RNA 1: B1 RNA 1
RNA 2: B1 RNA 2 with C27G, A28G, C29G, U52A, U53G, G54A
B29: target 2 MT 5'PFS GGG 3'PFS AGU (mixed)
RNA 1: B1 RNA 1
RNA 2: B1 RNA 2 with C27G, A28G, C29G, U52A, U53G, G54U
B30: target 2 MT 5'PFS GCA 3'PFS CUC (mixed)
RNA 1: B1 RNA 1
RNA 2: B1 RNA 2 with C27G, A28C, C29A, U52C, G54C
B31: target 2 MT 5'PFS GCA 3'PFS CUA (mixed)
RNA 1: B1 RNA 1
RNA 2: B1 RNA 2 with C27G, A28C, C29A, U52C, G54A
B32: target 2 MT 5'PFS GUC 3'PFS CUC (mixed)
RNA 1: B1 RNA 1
RNA 2: B1 RNA 2 with C27G, A28U, U52C, G54C
B33: target 2 MT 5'PFS GCA 3'PFS CUG (mixed)
RNA 1: B1 RNA 1
RNA 2: B1 RNA 2 with C27G, A28C, C29A, U52C

Molecular target: T1, EsCas13d, nuclease-dead
Experiment: crRNA (strand 1, pre-loaded); Mg2+; 40 mM Tris-HCl pH 7.5, 150 mM NaCl, 6 mM MgCl2, 1 mM DTT, 0.1% Tween-20, 0.2 mg/ml BSA; 25 C; 10 min per concentration, then washed
Conditions: tags: His6-TwinStrep-SUMO cleaved; N-terminal SNAP kept (SNAP-Surface 488); label: 3' end held by stalled T7 RNA polymerase

| Binder | Kd [nM] |
| --- | --- |
| B1 | 2.8 ± 0.5 |
| B2 | 4.4 ± 0.8 |
| B3 | 5.2 ± 1.2 |
| B4 | 11.7 ± 1 |
| B5 | 4.8 ± 0.5 |
| B6 | 32 ± 4 |
| B7 | 4.9 ± 0.7 |
| B8 | 5.1 ± 0.5 |
| B9 | 5.31 ± 0.29 |
| B10 | 10.3 ± 1.8 |
| B11 | 7.2 ± 0.4 |
| B12 | 9.8 ± 0.7 |
| B13 | 11 ± 0.7 |
| B14 | 5.14 ± 0.34 |
| B15 | 23.5 ± 2.9 |
| B16 | 8.2 ± 0.7 |
| B17 | 10.5 ± 0.9 |

| Binder | Kd [nM] |
| --- | --- |
| B18 | 12.3 ± 1.1 |
| B19 | 8.5 ± 0.5 |
| B20 | 11 ± 4 |
| B21 | 5.6 ± 1 |
| B22 | 7.8 ± 1.8 |
| B23 | 13.2 ± 2.4 |
| B24 | 8.3 ± 0.8 |
| B25 | 7.5 ± 0.5 |
| B26 | 82 ± 11 |
| B27 | 6.5 ± 0.4 |
| B28 | 5.5 ± 0.5 |
| B29 | 6.2 ± 0.5 |
| B30 | 23 ± 7 |
| B31 | 10.9 ± 2.5 |
| B32 | 15.5 ± 2.4 |
| B33 | 12.5 ± 2 |
